These results are taken from publication PMC10451225.

Where “and” joins values, the source holds several entries; their conditions need not be identical. Equal entries are not always repeated.

In data set [1] the target is SoxR Cys50Ser Cys116Ser, Strep-tagged (Hyphomicrobium denitrificans). Briefly: SEC; Superdex 75 Increase 10/300 GL, calibrated with mass standards; 50 mM Tris-HCl, pH 8.0, 150 mM NaCl; 0.8 mL/min; self-association of SoxR. Background: Size exclusion chromatography separates by hydrodynamic size, large species first.
In data set [2] the target is T1, SoxR (Hyphomicrobium denitrificans) (UniProt D8JT35).
T1 sequence: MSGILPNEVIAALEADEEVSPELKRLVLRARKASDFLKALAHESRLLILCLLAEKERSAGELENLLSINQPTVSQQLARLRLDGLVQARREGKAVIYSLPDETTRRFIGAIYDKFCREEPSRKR
Briefly: EMSA. The note with it: EMSA: 10 mM Tris-HCl pH 8.0, 50 mM KCl, 1 mM DTT, about 7% glycerol, 17 nM DNA, 15 ul; 20 min at room temperature, then 30 min at 30 C with DNA; 6% native gel …. On the technique in general: A gel shift assay detects complexes by their altered migration in electrophoresis.

In data set [3] the target is SoxR Cys50Ser, Strep-tagged (Hyphomicrobium denitrificans). The data set can be described thus: SEC; Superdex 75 Increase 10/300 GL, calibrated with mass standards; 50 mM Tris-HCl, pH 8.0, 150 mM NaCl; 0.8 mL/min; self-association of SoxR.
Data set [4] deals with Hyphomicrobium denitrificans SoxR, Strep-tagged wild type (Hyphomicrobium denitrificans). The data set is described as above.
Data set [5] concerns the target SoxR Cys116Ser, Strep-tagged (Hyphomicrobium denitrificans). Described as above.

In general, stoichiometry N refers to a count of units in the complex or per binding partner. Consider “SoxR Cys50Ser Cys116Ser, Strep-tagged (natural protein)”, for which the stoichiometry N in data set [1] was 2 and 4.

On to “GGGTCACCAAATTCTGCAGGTCTCAATGCGAATGCGAGGCTGCTCCAGCTAGACGAAAAACAAGGAACGTTGCAATAGATAATTCACATATGATAATTTTCATATGTGTTATAGGATGAACGTTATCGCAGCTTCCGGGAGAGATGGCGTGAT (double strand) [soxA-soxY intergenic fragment, 151 bp]”, for which, in data set [2], the binding result is listed as “binds”.

Regarding “SoxR Cys50Ser, Strep-tagged (natural protein)”, the stoichiometry N in data set [3] is 2 and 4.

For “Hyphomicrobium denitrificans SoxR, Strep-tagged wild type (natural protein)”, the stoichiometry N in data set [4] is 2 and 4.

With “SoxR Cys116Ser, Strep-tagged (natural protein)”, the stoichiometry N in data set [5] is 2 and 4.
